Test results from patent US11685791B2, “Antibody binding specifically to N-terminal region of lysyl-tRNA synthetase exposed on cell membrane” (Zymedi Co., Ltd., priority 2017, dated 2023).

Legend:
[1] = tested on: human KRS N-terminal peptide fragments (F1-F5); test: SPR (Biacore T200) of immobilized N3 IgG against human KRS N-terminal peptide fragments; format: binding
Protocol: First, N3 IgG antibody was immobilized to Biacore T200 (GE Healthcare) equipped with Series S sensor chip CM5 (GE Healthcare) by using an amine coupling kit (GE Healthcare). Then, the peptides shown in Table 4 below dissolved in PBS solution at corresponding concentrations were allowed to flow for 60 s. Then, PBS was allowed to flow for 5 min. Then, the binding ability was analyzed by Biacore T200 Evaluation software v2.0 (GE Healthcare).

[2] = tested on: mouse breast cancer 4T-1 cells; test: In-vivo cancer metastasis model (lung metastasis)
Protocol: Since KRS can accelerate cell migration through 67LR associated with cancer metastasis, tumor (cancer) animal models were constructed using mouse breast cancer 4T-1 cells (Korean Cell Line Bank), which are well metastasizable to the lung. Orthotopic breast cancer animal models were constructed by injecting 4×10^4 4 T1 cells into the fat pad of six 7-week old BALB/cAnCr mice (Doo Yeol Biotech).
The cancer was injected into the mammary fat pad, and after 10 days (Day 10), cancer tissues were resected from the fat pad. After one day (Day 11), N3 IgG (10 mg/kg) was administered twice a week for two weeks at intervals of 3 days (a total of four times, Days 11, 14, 18, and 21) via tail vein i.v. injection, and the same dose of control mock IgG (Thermo #31154) was also administered. One week after the completion of the entire antibody dosing schedule, that is, 28 days after cancer injection, the mice were sacrificed to take lung tissue. Upon autopsy of lung tissue, the lung was inflated by injection of a saline solution into the bronchus through a syringe, collected, and then stored in Bouin's solution (Sigma #HT10132) for 24 h. Thereafter, the metastasis nodules in each lobe of the lung were counted through a microscope.
It has been known in the foregoing literature “Dae Gyu Kim et al., (2014)” that the YH16899 compound has an effect on cancer metastasis inhibition by suppressing the interaction between 67LR and KRS. Then, the cancer metastasis inhibitory effect was compared between YH16899 and N3 IgG, the antibody of the present invention. The construction of in-vivo tumor models and the observation of lung metastasis condition were carried out by the same method as in Example <3-3>. YH16899 was orally administered at 100 mpk every day. N3 IgG was intravenously injected at difference concentrations (1 mpk, 10 mpk) through mouse tails.

[3] = tested on: KRS level in the monocyte/macrophage cell membrane (RAW 264.7 cells); test: Western blotting of KRS in membrane and cytosol fractions after LN421 treatment; format: cell-based; details: 100 nM, 24 h, laminin 421 1 μg/ml
Protocol: RAW 264.7 cells (2×10^6 cell) were incubated for 18 hr, treated with 1 μg/ml of each laminin subtype in serum-free DMEM, and then harvested at 0 h, 12 h, and 24 h. RAW 264.7 cell protein was separated into cytosol and membrane fractions by using the ProteoExtract Subcellular Proteome Extraction Kit (Calbiotech, cat #539790). The obtained protein was electrophoresed, transferred onto PVDF membrane (Milipore), and blocked with 3% skim milk. Thereafter, KRS polyclonal antibody (rabbit, Neomics, Co. Ltd. #NMS-01-0005) was added, followed by incubation for 1 h. After the unbound antibodies were washed out, anti-rabbit secondary antibodies (ThermoFisher Scientific, #31460) were added, followed by incubation. After incubation with the secondary antibodies, film sensitization was carried out using ECL reagent as a substrate in a dark room. The sensitized bands were compared with standard molecule markers to identify bands corresponding to KRS sizes. Na+/K+ ATPase (Abcam) and tubulin (Sigma) antibody were used for plasma membrane and cytosol marker identification, respectively. RAW 264.7 cells were treated with laminin 421 (1 μg/ml) and antibody (100 nM), incubated for 24 h, and harvested. […]

[4] = tested on: rat KRS N-terminal peptide fragments (rF1-rF5); test: SPR (Biacore T200) of immobilized N3 IgG against rat KRS N-terminal peptide fragments; format: binding
Protocol: In the same manner as the experimental method described in Example 4-1 above, N3 IgG antibody was immobilized on the chip by using an amine coupling kit (GE Healthcare). Then, the peptides shown in Table 4 above dissolved in PBS solution at corresponding concentrations were allowed to flow for 60 s, and PBS was allowed to flow for 5 min. Then, the binding ability was analyzed by Biacore T200 Evaluation software v2.0 (GE Healthcare).

[5] = tested on: pulmonary arterial hypertension (PAH) models; test: Blood pressure and cardiac output in monocrotaline PAH model; format: in vivo, rat; details: for CO / LVEDP / LVESP / RVEDP / RVESP: i.v. twice a week, 3 weeks, n = 5
Protocol: After three weeks, the rats were anesthetized with isoflurane, and measured for blood flow and pressure by using a high-precision pneumatic measurement system (MPVS cardiovascular pressure and volume system, model name: MPVS Ultra, manufacturer: Millar Instruments). The right ventricular end-systolic pressure (RVESP), right ventricular end-diastolic pressure, left ventricular end-systolic pressure, left ventricular end-diastolic pressure were measured using an exclusive catheter (Mikro-Tip rat pressure catheter, manufacturer: Millar Instruments). The cardiac output was measured using a perivascular blood flow probe (Transonic Flow probes, manufacturer: Millar Instruments), and experimental method thereof was performed by the same method as disclosed in the following literature: Pacher P, Nagayama T, Mukhopadhyay P, Batkai S, Kass D A. Measurement of cardiac function using pressure-volume conductance catheter technique in mice and rats. Nat Protoc 2008; 3(9):1422-34.
The models of PAH, which is a disease having a close relation between immune cell invasion and pathological phenomena, were treated with N3 IgG antibody (1 mpk or 10 mpk) for 3 weeks (i.v., twice a week), and then measured for right ventricular end-systolic pressure (RVESP), right ventricular end-diastolic pressure (RVEDP), left ventricular end-systolic pressure (LVESP), left ventricular end-diastolic pressure (LVEDP), and cardiac output (CO).

[6] = N3 IgG immobilized, peptides in PBS

B1: N3 IgG: IgG converted from N3 scFv; VH SEQ ID NO: 49, VL SEQ ID NO: 51; binds KRS N-terminal region (antibody, V domains shown)
VH: EVQLLESGGGLVQPGGSLRLSCAASGFTFSSYDMSWVRQAPGKGLEWVSAISYDNGNTYYADSVKGRFTISRDNSKNTLYLQMNSLRAEDTAVYYSARMALDFDYWGQGTLVTVSS
VL: QSVLTQPPSASGTPGQRVTISCTGSSSNIGSNYVTWYQQLPGTAPKLLIYDNSNRPSGVPDRFSGSKSGTSASLAISGLRSEDEADYYCASWDDSLSAYVFGGGTKLTVL
In the case of B1, the “binding to human KRS N-terminal epitopes F1-F5 (SPR)” value [1, 6] is reported as “bound to epitopes F1, F2, F3, and F4, but not epitope F5”, the “rank of binding ability among human epitopes” value [1, 6] is reported as “the binding ability to epitope F4 was strongest, and the binding ability to F3, F2, and F1 was stronger in that order” and the “main binding site in the KRS N-terminal region” value ([1]; amino acid positions) is reported as “positions 15 to 29”. The lung metastasis nodules ([2]; 10 mg/kg i.v. twice a week for two weeks, vs mock IgG control) was “significantly suppressed”, the “laminin receptor expression in metastasis nodule sites of lung tissue” value ([2]; 10 mg/kg i.v., control vs N3 IgG treatment group) was “significantly large amount of laminin receptors were expressed in the metastasis nodule sites in control compared with the group treated with the antibody” and the lung nodule count ([2]; 1 mpk and 10 mpk i.v.) was “significantly reduced in a dose-dependent manner”. For the same molecule, the “cancer metastasis inhibition compared with YH16899 (100 mpk)” value ([2]; 1 mpk i.v.) was “significantly inhibited cancer metastasis compared with YH16899”, the “KRS level in the cell membrane” value [3] was “effectively reduced” and the “relative binding ability, epitope F3 vs F1 (rat)” value [4] was “stronger binding ability to epitope F3 than F1”. For the same molecule, the “binding to rat KRS N-terminal epitopes F1-F5 (SPR)” value ([4]; F2 and F4 data not shown) was “bound to epitopes F1, F2, F3, and F4 of human (h), mouse (m), and rat (r) but not epitope F5”, the “change in RVESP” value ([5]; 1 mpk and 10 mpk, PAH models) was “significantly reduced” and the CO ([5]; MCT + N3 Ab 1 mpk) was 74.0 ± 0.9 mL/min. It also gave an LVEDP ([5]; MCT + N3 Ab 1 mpk) of 2.6 ± 1.9 mmHg, an LVESP ([5]; MCT + N3 Ab 1 mpk) of 95.8 ± 4.8 mmHg and an RVEDP ([5]; MCT + N3 Ab 1 mpk) of 1.4 ± 2.2 mmHg. It also gave an RVESP ([5]; MCT + N3 Ab 1 mpk) of 45.0 ± 8.1 mmHg, a CO ([5]; MCT + N3 Ab 10 mpk) of 59.8 ± 12.9 mL/min and an LVEDP ([5]; MCT + N3 Ab 10 mpk) of 4.6 ± 3.9 mmHg. It also gave an LVESP ([5]; MCT + N3 Ab 10 mpk) of 93.4 ± 11.3 mmHg, an RVEDP ([5]; MCT + N3 Ab 10 mpk) of 3.8 ± 1.3 mmHg and an RVESP ([5]; MCT + N3 Ab 10 mpk) of 41.2 ± 7.7 mmHg. The “change in LVESP” value ([5]; PAH models, antibody administered group) was “significantly increased”.
